Experimental data as given in patent US20190119318A1.
Several values for one entry are separate records, joined by “and”; a condition that tells them apart may be missing. Equal values may be shown once.

How the values were obtained:
[1] = target: human polyclonal IgG (Gammanorm) (human); assay: column DBC; base A38; ligand 11.34 mg/ml
[2] = target: human polyclonal IgG (Gammanorm) (human); assay: column DBC; base C3; ligand 9.0 mg/ml
[3] = target: human polyclonal IgG (Gammanorm) (human); assay: column DBC; base A65a; ligand 13.1 mg/ml
[4] = target: human polyclonal IgG (Gammanorm) (human); assay: column DBC; base B5; ligand 9.6 mg/ml
[5] = target: human polyclonal IgG (Gammanorm) (human); assay: column DBC; base A33; ligand 9.4 mg/ml
[6] = target: human polyclonal IgG (Gammanorm) (human); assay: column DBC; base A65b; ligand 8.8 mg/ml
[7] = target: human polyclonal IgG (Gammanorm) (human); assay: column DBC; base A32; ligand 13.3 mg/ml
[8] = target: human polyclonal IgG (Gammanorm) (human); assay: column DBC; base B5; ligand 6.3 mg/ml
[9] = target: human polyclonal IgG (Gammanorm) (human); assay: column DBC; base A39; ligand 10.48 mg/ml
[10] = target: human polyclonal IgG (Gammanorm) (human); assay: column DBC; base A62a; ligand 9.7 mg/ml
[11] = target: human polyclonal IgG (Gammanorm) (human); assay: column DBC; base A62a; ligand 6.6 mg/ml
[12] = target: human polyclonal IgG (Gammanorm) (human); assay: column DBC; base A42; ligand 6.72 mg/ml
[13] = target: human polyclonal IgG (Gammanorm) (human); assay: column DBC; ligand 13 mg/ml; before incubation in 1 M NaOH
[14] = target: human polyclonal IgG (Gammanorm) (human); assay: column DBC; base A40; ligand 11.0 mg/ml
[15] = target: human polyclonal IgG (Gammanorm) (human); assay: column DBC; base C1; ligand […]
[16] = target: human polyclonal IgG (Gammanorm) (human); assay: SPR; after 100 CIP cycles 0.5 M NaOH
[17] = target: human polyclonal IgG (Gammanorm) (human); assay: column DBC; base A28; ligand 7.9 mg/ml
[18] = target: human polyclonal IgG (Gammanorm) (human); assay: SPR; vs reference Zvar4; 1 M NaOH
[19] = target: human polyclonal IgG (Gammanorm) (human); assay: column DBC; base C1; ligand 10.8 mg/ml
[20] = target: human polyclonal IgG (Gammanorm) (human); assay: column DBC; base A40; ligand 13.2 mg/ml
[21] = target: human polyclonal IgG (Gammanorm) (human); assay: column DBC; base C2; ligand 10.5 mg/ml
[22] = target: human polyclonal IgG (Gammanorm) (human); assay: column DBC; base A38; ligand 7.5 mg/ml
[23] = target: human polyclonal IgG (Gammanorm) (human); assay: column DBC; base A20; ligand […]
[24] = target: human polyclonal IgG (Gammanorm) (human); assay: column DBC; base C4; ligand […]
[25] = target: human polyclonal IgG (Gammanorm) (human); assay: column DBC; base A62a; ligand 14.8 mg/ml
[26] = target: human polyclonal IgG (Gammanorm) (human); assay: SPR; after 300 CIP cycles 0.5 M NaOH
[27] = target: human polyclonal IgG (Gammanorm) (human); assay: column DBC; base A62a; ligand 7.5 mg/ml
[28] = target: human polyclonal IgG (Gammanorm) (human); assay: column DBC; base A65a; ligand 6.6 mg/ml
[29] = target: human polyclonal IgG (Gammanorm) (human); assay: column DBC; base H40; ligand 9.1 mg/ml
[30] = target: human polyclonal IgG (Gammanorm) (human); assay: column DBC; base A62a; ligand 6.4 mg/ml
[31] = target: human polyclonal IgG (Gammanorm) (human); assay: column DBC; base H40; ligand […]
[32] = target: human polyclonal IgG (Gammanorm) (human); assay: column DBC; ligand 16 mg/ml; before incubation in 1 M NaOH
[33] = target: human polyclonal IgG (Gammanorm) (human); assay: column DBC; base A20; ligand 10.6 mg/ml
[34] = target: human polyclonal IgG (Gammanorm) (human); assay: column DBC; base A41; ligand 13.0 mg/ml
[35] = target: human polyclonal IgG (Gammanorm) (human); assay: column DBC; base A63a; ligand 14.0 mg/ml
[36] = target: human polyclonal IgG (Gammanorm) (human); assay: column DBC; base I1; ligand 11.2 mg/ml

Zvar(Q9A,N11E,Q40V,A42K,N43A,L44I)4 (designed binder)
Qb10% 2.4 min [1]: 48.1 mg/mL
Qb10% 6 min [1]: 72.8 mg/mL
Qb10% 2.4 min [2]: 49 mg/mL
Qb10% 6 min [2]: 62 mg/mL
Qb10% 2.4 min [3]: 56 mg/mL
Qb10% 6 min [3]: 64 mg/mL
Qb10% 2.4 min [4]: 45 mg/mL
Qb10% 6 min [4]: 47 mg/mL
Qb10% 2.4 min [5]: 51 mg/mL
Qb10% 6 min [5]: 58 mg/mL
Qb10% 2.4 min [6]: 49 mg/mL
Qb10% 6 min [6]: 56 mg/mL
Qb10% 2.4 min [7]: 37 mg/mL
Qb10% 6 min [7]: 66 mg/mL
Qb10% 2.4 min [8]: 32 mg/mL
Qb10% 6 min [8]: 38 mg/mL
Qb10% 2.4 min [9]: 44.4 mg/mL
Qb10% 6 min [9]: 64.8 mg/mL
Qb10% 2.4 min [10]: 48 mg/mL
Qb10% 6 min [10]: 60 mg/mL
Qb10% 2.4 min [11]: 41 mg/mL
Qb10% 6 min [11]: 46 mg/mL
Qb10% 2.4 min [12]: 33.6 mg/mL
Qb10% 6 min [12]: 50 mg/mL
Qb10%, 6 min, before incubation [13]: 79 mg/mL
Qb10% 2.4 min [14]: 55 mg/mL
Qb10% 6 min [14]: 74 mg/mL
Qb10% 2.4 min [15]: 38 mg/mL
Qb10% 6 min [15]: 47 mg/mL
remaining capacity 100 cycles [16]: 90%
Qb10% 2.4 min [17]: 42.4 mg/mL and 42 mg/mL
Qb10% 6 min [17]: 58.2 mg/mL and 58 mg/mL
capacity relative to ref. 100 cycles [18]: 2.07
Qb10% 2.4 min [19]: 43 mg/mL
Qb10% 6 min [19]: 60 mg/mL
Qb10% 2.4 min [20]: 57 mg/mL
Qb10% 6 min [20]: 71 mg/mL
Qb10% 2.4 min [21]: 42 mg/mL
Qb10% 6 min [21]: 57 mg/mL
Qb10% 2.4 min [22]: 44 mg/mL
Qb10% 6 min [22]: 58 mg/mL
Qb10% 2.4 min [23]: 49 mg/mL
Qb10% 6 min [23]: 67 mg/mL
Qb10% 2.4 min [24]: 59 mg/mL
Qb10% 6 min [24]: 67 mg/mL
Qb10% 2.4 min [25]: 55 mg/mL
Qb10% 6 min [25]: 62 mg/mL
remaining capacity 300 cycles [26]: 57%
Qb10% 2.4 min [27]: 47 mg/mL
Qb10% 6 min [27]: 56 mg/mL
Qb10% 2.4 min [28]: 42 mg/mL
Qb10% 6 min [28]: 47 mg/mL
Qb10% 2.4 min [29]: 52 mg/mL
Qb10% 6 min [29]: 67 mg/mL
Qb10% 2.4 min [30]: 43 mg/mL
Qb10% 6 min [30]: 45 mg/mL
Qb10% 2.4 min [31]: 47 mg/mL
Qb10% 6 min [31]: 52 mg/mL
Qb10%, 6 min, before incubation [32]: 73 mg/mL
Qb10% 2.4 min [33]: 50.7 mg/mL and 51 mg/mL
Qb10% 6 min [33]: 70.1 mg/mL and 70 mg/mL
Qb10% 2.4 min [34]: 35 mg/mL
Qb10% 6 min [34]: 62.2 mg/mL
Qb10% 2.4 min [35]: 48 mg/mL
Qb10% 6 min [35]: 56 mg/mL
Qb10% 2.4 min [36]: 57 mg/mL
Qb10% 6 min [36]: 68 mg/mL
